This passage reports specific binding, fold over background (the pair that is blocked) and Kd results from PMC5925078.

A word on the Kd: it is the constant that tells how readily two partners part at equilibrium.

One test addresses membrane TNF (UniProt P01375). Put plainly: cellular binding study with GpL (luciferase) fusion protein; reciprocal competition; memTNF-expressing HEK293 transfectants incubated 90 min with 100 ng/ml TNFR1ed-GpL or TNFR2ed-GpL, alone or mixed with 2,000 ng/ml sTNF or 2,000 ng/ml PGRNAdi; EV transfectants as non-specific binding.
Another test concerns the target TNFR1 ECD (Homo sapiens) (UniProt P19438). Briefly: SPR. To be noted: cited from earlier work.
In the next test the target is TNFR2 ECD (Homo sapiens) (UniProt P20333). Put plainly: SPR. To be noted: cited from earlier work.

In the case of “TNFR2ed-GpL (from UniProt P20333 23-257) (receptor)”, in the test with membrane TNF, the specific binding, fold over background (the pair that is blocked) was more than 200 fold.
The same measure, in the same setting: the value for “TNFR1ed-GpL (from UniProt P19438 30-211) (receptor)” was more than 2000 fold.
Take Progranulin (from UniProt P28799): the figures for the Kd with TNFR1 ECD (Homo sapiens) and with TNFR2 ECD (Homo sapiens) were 1.77 nM and 1.52 nM, respectively.
